Assay results taken from the nanobody polyreactivity screen of Harvey et al. (2022).

Experiment: yeast display, Sf9 membrane polyspecificity reagent, FACS + sequencing; frameworks hold sequencing errors
How it was run: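 Galactose induction of a Saccharomyces cerevisiae BJ5465 synthetic nanobody display library ran 36–48 hours. The cells were then stained for 1 hour at 4 °C with 10% biotinylated, detergent-solubilized Sf9 membrane reagent, pulled down on streptavidin microbeads and FACS-sorted into low and high (top ~1%) gates on expression and reagent-binding fluorescence. Labels for polyreactivity follow the gate of origin.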

Sequence: QVQLVESGGGLVQAGGILRLSCAAYGRTFYLYTMGWYRQEPGKERELVAAISRGGRTYADSVKGRFTISRDNAKNTVYLQMNSLKPEDTAVYYCADRGYFYYSRYDSWGQGTQVTVSS
- polyreactivity (PSR sort gate): low polyreactivity

Sequence: QVLLVDSGGGLVQAGGSLSLICAASGFTFYYNAMGWYRQAPGKERELVAGISGRGGTTYYADSVNGRFTISRDNAKNTVYLQMNSLKPEDTAVYYCAARKVRARSKFEYWGQGTQVTVSS
- polyreactivity (PSR sort gate): high polyreactivity

Sequence: QVQLVESGGGLVQAGGSLRLSCAASGIIFYPNAMGWYRQAPGKERELVAAISWRSGSTYYADSVKGRFTISRDNAKNTVYLQMNSLKPEDTAVYYCAADRRRSYIWRYDYWGQGTQVTVSS
- polyreactivity (PSR sort gate): low polyreactivity

Sequence: QVQLVESGGGLVQAGGSLRLSCAASGRIFGKYAMGWYRQAPGKERELVAAISVRGGRTFYADSVKGRFTISRDNAKNTVYLQMNSLKPEVTAVYYCAARGADKGSYADVDYWGQGTQVTVSS
- polyreactivity (PSR sort gate): low polyreactivity

Sequence: QVQLVESGGGLVQAGGSLRLSCAASGSTFGRNAMGWYRQAPGKERELVATINWNGGRTYYADSVKGRFTISRDNAKNSVYLQMNSLKPEDTAVYYCNATKTGPATVRYYYWGQGTQVTVSS
- polyreactivity (PSR sort gate): high polyreactivity

Sequence: QVQLVESGGGLVQAGGSLRLSCAASGRIFDGYAMGWYRQAPGKERELVAAISSRGGRTYYADSVKGRFTISRDNAKNTVYLQMNSLKPEDTAVYYCAADDPYGEGDYWGQGTQVTVSS
- polyreactivity (PSR sort gate): low polyreactivity

Sequence: QVQLVESGGGLDQAGGSLRLSCAASGSIFPFYAMGWYRQAPGKERELVAAISSRGGSTYYADSVKGRFTISRDNAKNTVYLQMNSLKPEDTAVYYCAARDYSIKVRLGYWGQGTHVTVSS
- polyreactivity (PSR sort gate): low polyreactivity

Sequence: QVQLVESGGGLVQAGGSLRLSCAASGRIFNYYAMGWYRQAPGKERELVAAINSGGSTYADSVKGRFTISRDNAKNTVYLQMNSLKPEDTAVYYCAKDGQLQSGRERPSGYDHWGQGTQVTVSS
- polyreactivity (PSR sort gate): low polyreactivity

Sequence: QVQLVESGGGLVQAAGSLRLSCAASGITFSRNGMGWYRQAPGKERELFAAISTSGDSTDYADSVKGRFTISRDNAKNTVYLQMNSLKPEDTAVYYCNRDFSLVVHYKFDYWGQGTQVTVSS
- polyreactivity (PSR sort gate): low polyreactivity

Sequence: QVQLVESGGGLVQAGGSLRLICAASGRTLGGNDMGWYRQAPGKERELVAAITNSASTYADSVKGRFTISRDNAKNTVYLQMNSLKPEDTAVYYCNAPDPSDQHGDYWGQGTQVTVSS
- polyreactivity (PSR sort gate): low polyreactivity

Sequence: QVQLVESGGGLVQAGGSLRLSCAASGITFYHYAMGWYRQAPGKERELVAAISRSGGSTSYADSVMGRFTISRDNAKNTVYLQMNSLKPEDTAVYYCAARLVRESEPLGYWGQGTQVTVSS
- polyreactivity (PSR sort gate): high polyreactivity

Sequence: QVQLVESGGGLVQAGGSLRLTCAACGRTFYWYSMGWYRKAPGKERELVATITRTGTRTYYADSVKGRFTISRDNAKNTVYLQMNSLKPEDTAVYYCAAGVIRYGGKEEYYYWGLGTQVTVSS
- polyreactivity (PSR sort gate): high polyreactivity

Sequence: QVQLVESGGGLVQAGGSLRLSCAASGSTFPYYVMGWYRQAPGKERELVAAISWSGASTYYADSVKGRFTISRDNAKNTVYLQMNSLKPEDTAVYYCNRPKWYDGDYWGQGTQVTVSS
- polyreactivity (PSR sort gate): high polyreactivity

Sequence: QVQLVESGGRLVQAGGSLRLSCAASGSIFSGYTMGWYRQAPGKERELVAAISSDGSTTYADSVKGRFTISRDNAKNTVYLQLNSLKPEDSAVYYSAAYPYWDGSYGGYDYWGQGTQVTVSS
- polyreactivity (PSR sort gate): low polyreactivity

Sequence: QVQLVDSGGGLVQAGGSLRLSCAASGSTFPNNAMGRYRQAPGKERELVAAITTRGGSTYYADSVKGRFTISRDNAKNTVYLQMNSLKAEDTAVYYCAKRRRSAAPKYDYWGQGTQVTVSS
- polyreactivity (PSR sort gate): high polyreactivity

Sequence: QVQLVESGGGLVQAGGSLRLSCAASGITFYEYAMGWYRQAPGKERELVAAITSGGTTNYADSVKGRFTISRDNAKNTVYLQMNSLKPEDTAVYYCAKDEGEGYDYWGQGTQVTVSS
- polyreactivity (PSR sort gate): low polyreactivity

Sequence: QVQLVESGVGLVQAGGSLRLSCAASGSTFVWYAMGWYRQAPGKERELVAVIDWSGGSTSYADSVKGRFTISRDNAKNTVSFQMNSLKPEDTAVYYCAAQQGVISRGNYWGQGTQVTVSS
- polyreactivity (PSR sort gate): low polyreactivity

Sequence: QVQLVESGGGLVQAGGSLRLSCAASGSILGIKVMGWYRQAPGKERELVAAISRRGGSTYYADSVKGRFTISRDNAKNTVYLQMNSLKPEDTAVYYCAATRTARTMGYWGQGTQVTVSS
- polyreactivity (PSR sort gate): high polyreactivity

Sequence: QVQLVESGGGLVQAGGSLRLSCAASGSITVPYGMGWYRQAPGKERELVAAITGGSTNYADSVKGRFTISRDNAKNTVYLQMNSLKPEDTAVYYCAADWWALYTRYDYWGQGSQVTVSS
- polyreactivity (PSR sort gate): low polyreactivity

Sequence: QVQLVESGGGLVQAGGSLRLSCAASGYTFSDNAMGWYRQAPGKERELVAAITSGVSTYYADSVKGRFTISRDNAKNTVYLQMNSLKPEDTAVYYCAKDVAVYADLYQGAPYGYWGQGTQVTVSS
- polyreactivity (PSR sort gate): low polyreactivity

Sequence: QVQLVESGGGLVQAGGSHRLSCAASGSIFTWNGMGWYRQAPGKERELVAAISNGASTNYADSVKGRFTISRDNAKNTVYLQMNSLKPEDTEVDYCAAKSTGRYDYWGQGTQVTVSS
- polyreactivity (PSR sort gate): low polyreactivity

Sequence: QVQLVESGGGLVQAGGSLRLSCAASGRTFPWYAMGWYRQAPGKERELVADITWSGGSTYYADSVKGRFTISRDNAKNTVYLQMNSLKPEDTAVYYCATRVLFWYRKYPGRPLTKYDYWGQGTQVTVSS
- polyreactivity (PSR sort gate): high polyreactivity

Sequence: QVQLVESGGGLVQAGGSLRLSCAASGFIFVGNVMGWYRQAPGKERELVARISTSGGSTYYADSVKGRFTISRDNAKNTVYLQMNSLKPEDTAVYYCAARRRTGREYGYWGQGTQVTVSS
- polyreactivity (PSR sort gate): high polyreactivity

Sequence: QVQLVESGGGLDQAGGSLRLSCAASGITFYGYTMGLYRQAPGKERELVATITRGGSTYYADSVKGRFTISRDNAKNTVYLQMNSLKPEDTAVYYCAAESQYDYGVEYDYWVQGTQVTVSS
- polyreactivity (PSR sort gate): low polyreactivity

Sequence: QVQLVESGGGLVQAGGSLRLSCPASGRTFQVYAMGWYRQAPGKERELVAGITRAGSTYYADSVKGRFTISRDNAKNTVYLQMISLKPEDTAVYYCAAGWKSSYYIWRYGSWGQGTQVTVSS
- polyreactivity (PSR sort gate): high polyreactivity

Sequence: QVQLVESGGGLVQAGGSLRISCAASVSTFWYYAMGWYIQAPRKERELVAPISRTGGGTYYADSVKGRFTISRDNAKNSVYLQMNSLKPEDTAVYYCARGSVYSDAQIYDYWGQGTQVTVSS
- polyreactivity (PSR sort gate): low polyreactivity

Sequence: QVQLVESGGGLVQAGGSLRLSCAASGFTYRYYAMGWYRQSPGKERELVAAISSGGNTRYADSVKGRFTISRDNAKNTVYLQMTSLKPEDTAVYYCARRPGDWKYVYTGDYWGQGTQVTVSS
- polyreactivity (PSR sort gate): high polyreactivity

Sequence: QVHLVESGGGLVQAGGSLRLSCAASGITFYYYAMGWYRQAPGKERELVAAIDTDGSTYYADSVKGRFTVSRDNAKNTVYLQMNILKPEDTAVYYCAAVIEYYPYSGYIYDYWGQGSQVTVSS
- polyreactivity (PSR sort gate): high polyreactivity

Sequence: QVQLVESGGGLVQAGGSLRLSCAASGRNFCNYAMGWYIQAPGKERELVAVIRFSDGSTYYADSVKGRFTISRDNAKNTVYLQMNSLKPEDTAVYYCAAKGPRRWGSGFDYWGQGTQVTVSS
- polyreactivity (PSR sort gate): low polyreactivity

Sequence: QVQLVESGGGLVQAGGSLRLSCAASGSTFSYNAMGWYRQAPGKERELVAAISGSGGTTYYSDSVKGRFTISRDNAKNTVYLQMNSLKPEDTAVYYCAARPFRSWRYDYWGQGTQVTVSS
- polyreactivity (PSR sort gate): low polyreactivity

Sequence: QVQLVESGGGLVQAGGSLRLSCAASGLTFDKYVMGWYRQAPGKERELVAAITKGGGSTYYADSVKGRFTISRDNAKNTVYLQMNSLKPEDTAVYYCAVTLPLRYWGQGTQVTVSS
- polyreactivity (PSR sort gate): high polyreactivity

Sequence: QVPLVESGGGLVHAGGSLRLSCAASGIILHDNTMGWYRQAPGKERELVAAITSDGSTNYADSVKGRFTISSDNAKNTVYLQMNSLKPEDTAVYYCNTDDGPYTEFDYWRQGTQVTVSS
- polyreactivity (PSR sort gate): low polyreactivity

Sequence: QVHLVESGGGLVQAGGSLRLSCADSGSTFKNYAMGWYRPAPGKERELVATITKRGGSTYYADSVKGRFTISRDNAKNTVYLQMKSMKPEDTAVYYCAAAPNGPRYRDRFDYWGQGNQVTVSS
- polyreactivity (PSR sort gate): high polyreactivity

Sequence: QVQLVESGGGLVQAGGSLRLSCAASGRTFDRNTMGWYRQAPGKQRELVAAISSSGGSTYYADSVKGRFTISRDNAKNTVYLQMNSLKPEDTAVYYCAARQSPNRWMGYWGQGTQVTVSS
- polyreactivity (PSR sort gate): high polyreactivity

Sequence: QVQLVDSGGGLVQAGGSLRLSCAASVITFGYYAMGWYRQAPGKERELVAAISRSGGNTRYADSVKGRFTISRDNAKNTVYLQMNSLKTDDTAVYYCAKRTTYSDDYWGQGTQVTVSS
- polyreactivity (PSR sort gate): high polyreactivity

Sequence: QVQLQDSGGVQAGGSLRLSCAASGYISRSDVMGWYRQAPGKERELVATIINGTITYYADSVKGRFPISRDNAKNTVYLQMNSLNPEDTAVQYCAVVQSDTDSLYYWGQGTQVTVSS
- polyreactivity (PSR sort gate): low polyreactivity

Sequence: QVQLVESGGGLVQAGGSLRLSCAASGIIFSPYAMGWYRQAPGKERELVAAINFSTGRTYYADSVKGRFTISRDNAKNTVYLQMNSLKPEDTAVYYCAAGKYPYVFRGGYDYWGQGTQVTVSS
- polyreactivity (PSR sort gate): low polyreactivity

Sequence: QVQLVESGGGLVQAGGSLRLSCAATGFTFTLYAMGWYRQAPGKERALVAAITRLGTSTYYADSVKGRFTISRDNAKNTVYLQMNNLKPEDTAVYYCAARGGGGQRYDYWGHGTQVTVSS
- polyreactivity (PSR sort gate): high polyreactivity

Sequence: QVHLVESGGGLVQAGGSLRLSCAASGSTFRYYAMGWYRQAPGKERELVAAIRDSGGSTYYADSVKGRFTISRDNAKNTVYLQMNSLKPEDTAVYYCARRAYRWYSAYDSWGQGTQVTVSS
- polyreactivity (PSR sort gate): high polyreactivity

Sequence: QVQLVQSGGGLVQAGGSHRLSCAASGSTFKPYALGWYRQSPGKETELVAASSRGTRTYADSVKGRFTISRDNAKNTVYLQMNSVKPEDTAVYYCAAEWRLTFGYHYEFDYWGQGTQVTVSS
- polyreactivity (PSR sort gate): low polyreactivity

Sequence: QVQLVESGGGLVQAGGSLRLSCAASGLTFPNNGMGWYRQAPGKERELVAAIRSSGGSTYYADSVKGRFTISRDNAKNTVYLQMNSLKPEDTAVYYCNARRRGGYVGRPRYPVAAYDYWGQGTQVTVSS
- polyreactivity (PSR sort gate): low polyreactivity

Sequence: QFQLVESGGGLVQAGGSLRLSCAASGSIFGYYDMGWYRQAPGKERELVAAISWSGDTTYYADSVKGRFTISRDNAKNTVDLQMNILTPEDTAVYYCSAEFYDWLGGMGYWGQGTQVNVSS
- polyreactivity (PSR sort gate): low polyreactivity

Sequence: QVQLVESGGGLVQAGGSLRLSCAASGITFYVHAMGWYRQAPGKERELVASITWSGGSTYYADSVKGRFTISRDNAKNTVYLQMNSLKPEDTAVYYCAHVLYRAYEYWGQGTQVTVSS
- polyreactivity (PSR sort gate): low polyreactivity
